Measurements as given in article PMC6019700 (Cell Reports, 2018).

How the values were obtained:
[1] = molecular target: PC64M18C043 full-length Env (late FL), clade A HIV-1 Env clone no. 43 from the 18 months post-infection … (HIV-1 clade A, donor PC64, clone …, strain, N-linked glycans (N130, N156, N160 and others) | N-linked glycans (N611, N616, N637 and others)); assay: cell-based or functional assay
[2] = molecular target: PC64M4C054 full-length Env (early FL) (HIV-1 clade A, donor PC64, clone …, strain, N-linked glycans | N-linked glycans); assay: cell-based or functional assay

B1: PCT64-35S Fab (late Fab), PCT64 lineage antibody isolated from the month 35 sample (Fab, V domains shown)
VH: EVQLVESGGGLVKPGGSLRLACVGSEFTFSEAWMTWVRQAPGKGLEWVGHMRPTTEGGAKDYAAAVRGRFTIARDDSKSTLYLQMNSLKIEDTGVYYCMTGVERGDFWSDDYSQHYNTYLIDVWGKGTTVTVSS
VL: EIVLTQSPGTLSLSPGDRATLSCRATQSVGGDYFAWYQQRPGQSPRLLIYGTSRRAAGIPDRFSGSGSGTDFTLTIDRLEPEDFAVYYCRQYETSFTFGPGTKVDIK
neutralisation of late M18 virus by the antibody PCT64-35S, IC50 [1]: 9 µg/mL

B2: PCT64-13C Fab (early Fab), PCT64 lineage antibody isolated from month 13 (Fab, V domains shown)
VH: EVQLVESGGGLVKPGGSLRLSCAASGFTFTNAWLDWVRQAPGKGLEWVGRIKSKTDGGTTDHAAPVKGRFTISRDDSKNTVYLQMNSLKIEDTAVYYCTTGVETYDFWSGYDDHYYDYYFKDVWGKGTTVTVSS
VL: EIVLTQSPGTLSLSPGERATLSCRASQSVSNNYLAWYQQKPGQAPRLLIYGASSRATGIPDRFSGSGSGTDFTLTISRLEPEDFAVYYCQQSARSFTFGPGTKVDIK
neutralisation of early M4 virus by the antibody PCT64-13C, IC50 [2]: 0.0229 µg/mL

B3: PGT151 Fab (Fab, V domains shown)
VH: RVQLVESGGGVVQPGKSVRLSCVVSDFPFSKYPMYWVRQAPGKGLEWVAAISGDAWHVVYSNSVQGRFLVSRDNVKNTLYLEMNSLKIEDTAVYRCARMFQESGPPRLDRWSGRNYYYYSGMDVWGQGTTVTVSS
VL: DIVMTQTPLSLSVTPGQPASISCKSSESLRQSNGKTSLYWYRQKPGQSPQLLVFEVSNRFSGVSDRFVGSGSGTDFTLRISRVEAEDVGFYYCMQSKDFPLTFGGGTKVDLK
neutralisation of late Env pseudovirus, IC50 [1]: 0.0013 µg/mL
